# Assay results taken from patent US20200277385A1 (LABORATOIRE FRANCAIS DU FRACTIONNEMENT ET DES …, published 2020).
# T1: human CD303 antigen expressed on cells (human, UniProt Q8WTT0 1-213)
# T1 sequence: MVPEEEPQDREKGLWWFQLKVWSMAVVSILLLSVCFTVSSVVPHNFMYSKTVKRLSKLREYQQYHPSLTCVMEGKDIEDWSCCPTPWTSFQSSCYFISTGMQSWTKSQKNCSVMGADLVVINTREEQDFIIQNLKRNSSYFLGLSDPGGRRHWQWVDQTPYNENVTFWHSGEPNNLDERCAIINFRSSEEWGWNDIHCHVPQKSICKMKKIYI
# B1: chimeric antibody 102E9 (antibody, human IgG1, kappa)
# heavy: not shown
# light: QIVLTQSPAIMSASPGEKVTITCSASSSVIYIHWFQQKPGTSPKLWIYSTSYLASGVPARFSGSGSGTSYSLTISRMEAEDAATYYCQQRRSYPFTFGGGTKLEIKRTVAAPSVFIFPPSDEQLKSGTASVVCLLNNFYPREAKVQWKVDNALQSGNSQESVTEQDSKDSTYSLSSTLTLSKADYEKHKVYACEVTHQGLSSPVTKSFNRGEC
# notes: also called ch.102E9
# B2: chimeric antibody 122A2 (antibody, human IgG1, kappa)
# heavy: not shown
# light: DIQMTQTTSSLSASLGDRVTISCRASQDISNYLNWYQQKPDGTVKLLIYYTSRLHSGVPSRFSGSGSGTDYSLTISNLDQEDIATYFCQQGNTLPWTFGGGTKLEIKRTVAAPSVFIFPPSDEQLKSGTASVVCLLNNFYPREAKVQWKVDNALQSGNSQESVTEQDSKDSTYSLSSTLTLSKADYEKHKVYACEVTHQGLSSPVTKSFNRGEC
# notes: also called ch.122A2; ch122A2
# Legend:
# [1] = target: T1, human CD303 antigen expressed on cells; assay: cell-based or functional assay
# [2] = target: T1, human CD303 antigen expressed on cells; assay: cell-based or functional assay; remark: listed apart in the source
# [3] = target: T1, human CD303 antigen expressed on cells; assay: flow cytometry on CAL-1 cells (experiment with BIIB059)
# Experimental: (§1) The CD303-expressing cells and the antibodies are prepared in diluent (PBS+1% FCS). 1·10⁵ cells are incubated at 4° C. for 30 minutes with 100 μL of antibody (anti-CD303 or negative control) at various concentrations (0-40 μg/mL, final concentration).
# (§2) After washing with the diluent, the antibodies are visualized by addition of a phycoerythrin (PE)-coupled goat anti-mouse IgG F(ab′)₂ fragment (100 μL diluted to 1:100 in the diluent) for 45 minutes at 4° C. The cells are then washed and analyzed by flow cytometry (FC500, Beckman Coulter).
# FcγRIIIa (CD16a) [4] = target: T2, FcγRIIIa (CD16a) (UniProt P08637 17-254, limits assumed); assay: competition with 3G8-PE for CD16 on NK cells, flow cytometry
# T2 construct: whole, on cells; also called Fcγ receptor III
# [5] = target: T1, human CD303 antigen expressed on cells; assay: flow cytometry on CAL-1 cells
# Experimental: as §1, §2
# [6] = target: T1, human CD303 antigen expressed on cells; assay: flow cytometry on CAL-1 cells transfected with CD303 (about 40,000-50,000 CD303/cell)
# Experimental: as §1, §2
# FcγRIIIa (CD16a) [7] = target: T2, FcγRIIIa (CD16a); assay: competition with 3G8-PE for CD16 on NK cells, flow cytometry (second experiment)
# [8] = target: T1, human CD303 antigen expressed on cells; assay: flow cytometry on Fcγ chain-CD303 Jurkat cells
# Experimental: as §1, §2
# [9] = target: T1, human CD303 antigen expressed on cells; assay: cell-based or functional assay; remark: listed apart in the source
# T2 sequence (P08637 17-254 limits assumed): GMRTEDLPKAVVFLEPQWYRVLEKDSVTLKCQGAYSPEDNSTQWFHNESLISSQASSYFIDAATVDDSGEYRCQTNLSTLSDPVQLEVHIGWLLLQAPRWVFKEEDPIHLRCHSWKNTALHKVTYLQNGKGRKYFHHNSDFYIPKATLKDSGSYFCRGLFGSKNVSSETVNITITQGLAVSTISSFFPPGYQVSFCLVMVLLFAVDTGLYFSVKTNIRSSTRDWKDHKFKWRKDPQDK
binder,measurement,setting,value
B1,"ADCC EC50, Fcγ chain-CD303 Jurkat target cells with NK cells",[1],0.00342 µg/mL
same,"ADCC Emax (% lysis), Fcγ chain-CD303 Jurkat target cells with NK cells",[1],38.9 % lysis
same,"ADCC EC50, CAL-1 target cells",[2],0.0038 µg/mL
same,EC50,[3],0.44 µg/mL
same,IC50,FcγRIIIa (CD16a) [4],37 µg/mL
same,Bmax (MFI),[5],30.5 MFI
same,EC50,[5],1.81 µg/mL
same,EC50,[6],0.363 µg/mL
same,IC50,FcγRIIIa (CD16a) [7],13 µg/mL
same,Bmax (MFI),[8],24.9 MFI
same,EC50,[8],3.87 µg/mL
B2,"ADCC EC50, Fcγ chain-CD303 Jurkat target cells with NK cells",[1],0.000159 µg/mL
same,"ADCC Emax (% lysis), Fcγ chain-CD303 Jurkat target cells with NK cells",[1],42.4 % lysis
same,IC50 for IFN-α secretion from pDCs contained in PBMCs,[9],0.959 ng/mL
same,"ADCC EC50, CAL-1 target cells",[2],0.00093 µg/mL
same,EC50,[3],0.06 µg/mL
same,IC50,FcγRIIIa (CD16a) [4],40.4 µg/mL
same,Bmax (MFI),[5],25.2 MFI
same,EC50,[5],0.207 µg/mL
same,EC50,[6],0.142 µg/mL
same,IC50,FcγRIIIa (CD16a) [7],13 µg/mL
same,Bmax (MFI),[8],26.2 MFI
same,EC50,[8],0.128 µg/mL
